Reference: patent US20090148861A1 (SALK INSTITUTE, published 2009)

Experiments:
[1] = target: GIRK2 L257A mutant channel; assay: cell-based or functional assay
[2] = target: GIRK2 L257W mutant channel; assay: cell-based or functional assay
[3] = target: GIRK2 L257Y mutant channel; assay: cell-based or functional assay
[4] = target: GIRK2 Y349W mutant channel; assay: cell-based or functional assay
[5] = target: GIRK2c channel, wild type; assay: cell-based or functional assay
[6] = target: GIRK4 S143T mutant channel; assay: cell-based or functional assay
[7] = target: GIRK4* L252A mutant channel; assay: cell-based or functional assay
[8] = target: GIRK4* L252W mutant channel; assay: cell-based or functional assay
[9] = target: GIRK4* L252Y mutant channel; assay: cell-based or functional assay
[10] = target: the molecule itself; assay: S200 Sepharose size chromatography; self-association of the cytoplasmic domains into a tetramer
Protocol: (§1) Kir2.1 mutants were grown in Terrific Broth at 37 degrees C. to the OD600 of 0.6, then induced with 0.5 mM IPTG for 3 hours prior to harvesting. Cells were lysed in 0.5M NaCl, 20 mM Tris-HCl pH 8.5, 10% glycerol, 7 mM beta-mercaptoethanol, 0.1 mM PMSF, 10 mM imidazole and 0.5 mg lysozyme per 100 ml of lysate. The lysate was sonicated and spun at 94,000 G for 45 minutes. The supernatant was loaded on a 2 ml-packed nickel affinity column (Qiagen), washed with 5 ml of lysis buffer without PMSF, and then eluted with lysis buffer with 250 mM imidazole. Thrombin was added to the eluted fraction and it was dialyzed against the sizing column buffer, 150 mM NaCl, 5 mM Tris-HCl pH 8.5, 2 mM DTT. Kir2.1 was then purified by S200 Sepharose chromatography and concentrated to 10 mg/ml with 10 mM DTT. Kir2.1 proteins were loaded on a G4000PWXL HPLC column (TOSOH) equilibrated in 150 mM NaCl, 5 mM Tris-HCl 8.5, 2 mM DTT. Molecular weight (MW) of the tetramer complex was calculated by Minidawn static light scattering requiring the use of the extinction coefficient of the monomer. The extinction coefficient was derived from the primary sequence of the protein. […]

[11] = target: the molecule itself; assay: sizing column; self-association into a tetramer
Protocol: Kir2.1 mutants were grown in Terrific Broth at 37 degrees C. to the OD600 of 0.6, then induced with 0.5 mM IPTG for 3 hours prior to harvesting. Cells were lysed in 0.5M NaCl, 20 mM Tris-HCl pH 8.5, 10% glycerol, 7 mM beta-mercaptoethanol, 0.1 mM PMSF, 10 mM imidazole and 0.5 mg lysozyme per 100 ml of lysate. The lysate was sonicated and spun at 94,000 G for 45 minutes. The supernatant was loaded on a 2 ml-packed nickel affinity column (Qiagen), washed with 5 ml of lysis buffer without PMSF, and then eluted with lysis buffer with 250 mM imidazole. Thrombin was added to the eluted fraction and it was dialyzed against the sizing column buffer, 150 mM NaCl, 5 mM Tris-HCl pH 8.5, 2 mM DTT. Kir2.1 was then purified by S200 Sepharose chromatography and concentrated to 10 mg/ml with 10 mM DTT. Kir2.1 proteins were loaded on a G4000PWXL HPLC column (TOSOH) equilibrated in 150 mM NaCl, 5 mM Tris-HCl 8.5, 2 mM DTT. Molecular weight (MW) of the tetramer complex was calculated by Minidawn static light scattering requiring the use of the extinction coefficient of the monomer. The extinction coefficient was derived from the primary sequence of the protein.
To understand the nature of the mildly-aggregating R218Q, it was reasoned that changing the Thr309 to a positive charge residue would restore a polar interaction similar to the native one present in Kir2.1 between Arg218 and Thr309 (FIG. 2C). […]

[12] = target: the molecule itself; assay: X-ray crystal structure at 2.0 A; homotetramer
[13] = target: the molecule itself; assay: size chromatography of the cytoplasmic domains; homotetramer
Protocol: as §1

G-protein beta-gamma subunits
percent change from basal current on Carbachol, whole-cell patch clamp [1]: 36% | percent change from basal current on Carbachol, whole-cell patch clamp [2]: 12% | percent change from basal current on Carbachol, whole-cell patch clamp [3]: 38% | percent change from basal current on Carbachol, whole-cell patch clamp [4]: 56% | percent change from Ba++ sensitive basal current on 5 uM Carbachol (M2R co-transfected), whole-cell patch clamp [5]: 928% | Carb activation as percent of basal current, whole-cell patch clamp (% of basal current) [6]: 231 | Carb activation as percent of basal current, whole-cell patch clamp [7]: 51% | Carb activation as percent of basal current, whole-cell patch clamp [8]: 23% | Carb activation as percent of basal current, whole-cell patch clamp [9]: 110%

B1: Kir2.1L-E303K (other, mouse, UniProt P35561 44-64, looked up)
chain: RSRFVKKDGHCNVQFINVGEKRNETLVFSHNAVIAMRDGKLCLMWRVGNLRKSHLVEAHVRAQLLKSRITSEGEYIPLDQIDINVGFDSGIDRIFLVSPITIVHEIDEDSPLYDLSKQDIDNADFEIVVILEGMVKATAMTTQCRSSYLANEILWGHRYEPVLFEEKHYYKVDYSRFHKTYEVPNTPLCSARDLAEKKYILSNANSFCYENEVALTSKEEEEDSENGVPESTSTDSPPGIDLHNQASVPLEPRPLRRESEI
notes: range 44-64;range 189-428; Same construct as Kir2.1L; also called E303KL
binding result [10]: binds

B2: Kir2.1L-R218Q/T309K (other, mouse, UniProt P35561 44-64, looked up)
chain: RSRFVKKDGHCNVQFINVGEKRNETLVFSHNAVIAMRDGKLCLMWRVGNLQKSHLVEAHVRAQLLKSRITSEGEYIPLDQIDINVGFDSGIDRIFLVSPITIVHEIDEDSPLYDLSKQDIDNADFEIVVILEGMVEATAMTKQCRSSYLANEILWGHRYEPVLFEEKHYYKVDYSRFHKTYEVPNTPLCSARDLAEKKYILSNANSFCYENEVALTSKEEEEDSENGVPESTSTDSPPGIDLHNQASVPLEPRPLRRESEI
notes: range 44-64;range 189-428; Same construct as Kir2.1L; also called R218Q/T309KL
binding result [11]: binds

B3: Kir2.1L-R218Q/T309R (other, mouse, UniProt P35561 44-64, looked up)
chain: RSRFVKKDGHCNVQFINVGEKRNETLVFSHNAVIAMRDGKLCLMWRVGNLQKSHLVEAHVRAQLLKSRITSEGEYIPLDQIDINVGFDSGIDRIFLVSPITIVHEIDEDSPLYDLSKQDIDNADFEIVVILEGMVEATAMTRQCRSSYLANEILWGHRYEPVLFEEKHYYKVDYSRFHKTYEVPNTPLCSARDLAEKKYILSNANSFCYENEVALTSKEEEEDSENGVPESTSTDSPPGIDLHNQASVPLEPRPLRRESEI
notes: range 44-64;range 189-428; Same construct as Kir2.1L; also called R218Q/T309RL
binding result [11]: binds

B4: Kir2.1S-R218Q/T309K, N-terminal (44-64) fused to C-terminal (189-371) of mouse Kir2.1 (other, UniProt P35561 44-64, looked up)
chain: RSRFVKKDGHCNVQFINVGEKRNETLVFSHNAVIAMRDGKLCLMWRVGNLQKSHLVEAHVRAQLLKSRITSEGEYIPLDQIDINVGFDSGIDRIFLVSPITIVHEIDEDSPLYDLSKQDIDNADFEIVVILEGMVEATAMTKQCRSSYLANEILWGHRYEPVLFEEKHYYKVDYSRFHKTYEVPNTPLCSARDLAEKKYILSNA
notes: range 44-64;range 189-371; Crystallised form (2.0 A, space group C2, one tetramer per asymmetric unit); also called R218Q/T309KS; R218Q/T309Ks
binding result [12]: binds

B5: Kir2.1L-G300V (other, mouse, UniProt P35561 44-64, looked up)
chain: RSRFVKKDGHCNVQFINVGEKRNETLVFSHNAVIAMRDGKLCLMWRVGNLRKSHLVEAHVRAQLLKSRITSEGEYIPLDQIDINVGFDSGIDRIFLVSPITIVHEIDEDSPLYDLSKQDIDNADFEIVVILEVMVEATAMTTQCRSSYLANEILWGHRYEPVLFEEKHYYKVDYSRFHKTYEVPNTPLCSARDLAEKKYILSNANSFCYENEVALTSKEEEEDSENGVPESTSTDSPPGIDLHNQASVPLEPRPLRRESEI
notes: range 44-64;range 189-428; Same construct as Kir2.1L; also called G300VL
binding result [13]: binds
